Experimental findings from paper PMC3899027 are described below.

“And” between values parts separate entries of the source, which are not always exact repeats. Identical values can stand only once.

Experiment [1] concerns the target BphP1 kinase core (BphP1-HK, residues 462-703) (Rhizobium NT-26). Nature of the experiment: SEC; Superose 6; 50 mM Tris-HCl pH 8.0, 30-500 mM NaCl, 1 mM βME; peak positions invariant irrespective of loading concentrations.
For another experiment, the target named is AgR (Rhizobium NT-26). Described as above.
The target of experiment [2] is ExsG receiver domain (ExsG-REC, residues 1-129) (Rhizobium NT-26). The description is as above.
Experiment [3] addresses ExsG (wild-type, full-length) (Rhizobium NT-26). In words: AUC; sedimentation velocity; 50 mM Tris-HCl pH 8.0, 250 mM or 30 mM NaCl; seven concentrations 0.2-2 mg/ml; 40,000 rpm, 20°C; c(s) in SEDFIT.
Experiment [4] shares this target. In words: AUC; sedimentation equilibrium; 50 mM Tris-HCl pH 8.0, 250 mM NaCl; six concentrations 0.1-1.5 mg/ml; 7, 11, 16, 24 krpm, 20°C; SEDFIT and SEDPHAT.
Experiment [5] shares this target. In words: native MS; nESI-MS and IM-MS; 150 mM ammonium acetate pH 8, 0.1 mM DTT; 30-40 μM (monomer); native, phosphoramidate-treated or AMP-PNP-treated samples.
Experiment [6] shares this target. Nature of the experiment: native MS; nESI-MS at raised ionic strength: 400, 600 and 800 mM ammonium acetate pH 8, 0.1 mM DTT; 30-40 μM (monomer); disassembly of the hexamer.
For experiment [7] the target is unchanged. Nature of the experiment: native MS; nESI-MS and IM-MS; 150 mM ammonium acetate pH 8, 0.1 mM DTT; 30-40 μM (monomer); native, phosphoramidate-treated or AMP-PNP-treated samples. The source holds these as a separate data set.
Experiment [8] concerns the target ExsG phosphorylated on Asp62 by phosphoramidate (Rhizobium NT-26). Described as above.

As for “BphP1 kinase core (BphP1-HK, residues 462-703) (domain or fragment)”, the stoichiometry N (usually a count of units in the complex or per binding partner) in experiment [1] is 2.

As to AgR (natural protein), in the experiment with AgR (Rhizobium NT-26), the stoichiometry N was 2.

“ExsG receiver domain (ExsG-REC, residues 1-129) (domain or fragment)” came in with a stoichiometry N in experiment [2] of 2.

For the substance ExsG (wild-type, full-length) (enzyme), the stoichiometry N in [3] was 6; in [4], 6; in [5] it was 6; in [6] it was 2 and 4; in experiment [7] it was 2.

“ExsG phosphorylated on Asp62 by phosphoramidate (enzyme)” gave a stoichiometry N in experiment [8] of 6.
